Biological target: mouse ChemR23, PathHunter β-Arrestin cell line (mouse) (UniProt P97468)
Assay: cell-based or functional assay

Sequence of mouse ChemR23, PathHunter β-Arrestin cell line (mouse) (P97468 whole entry): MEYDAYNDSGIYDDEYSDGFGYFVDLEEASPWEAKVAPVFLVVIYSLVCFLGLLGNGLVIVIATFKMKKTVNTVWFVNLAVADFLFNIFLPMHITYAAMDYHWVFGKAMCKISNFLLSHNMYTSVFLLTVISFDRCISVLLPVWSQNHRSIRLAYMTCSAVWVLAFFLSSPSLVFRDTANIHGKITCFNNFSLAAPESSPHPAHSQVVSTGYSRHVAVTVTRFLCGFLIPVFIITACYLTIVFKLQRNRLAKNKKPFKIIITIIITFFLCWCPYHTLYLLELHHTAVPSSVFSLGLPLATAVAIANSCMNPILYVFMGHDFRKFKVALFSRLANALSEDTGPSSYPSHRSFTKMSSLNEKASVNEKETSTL

**Q.** With “hrChemerin (from UniProt Q99969 21-157) (ligand)” as the substance, how does the EC50, Arrestin, Agonist (RC50, uM) read?
**A.** 0.00154 µM
